Results taken from patent US20100144029.

Target: ClpP proteasome (UniProt P0A6G7)

processed E. coli ClpX protein (after proteolytic removal of the T7B carboxyl-terminal extension)
ATPase activity and ability to cooperate with the ClpP proteasome in degrading model protein substrates: full biological activity
